The values that follow come from patent US20150258192A1, “COMPOSITIONS AND METHODS FOR PREVENTING OR TREATING CHRONIC LUNG ALLOGRAFT DYSFUNCTION (CLAD) AND IDIOPATHIC PULMONARY FIBROSIS (IPF)” (priority 2014, published 2015).

Common to all, as to experiment: Kinase Profiling Assay
Common to all, as to assay type: biochemical
What all share (conditions): peptide 100 μM

The target in test [1] is CDK5/p25(h) (Homo sapiens, UniProt Q00535). The method, then:
(§1) Every kinase activity measurement was conducted in duplicate.
(§2) Specifically, in these assays, a positively charged substrate is phosphorylated with a radiolabeled phosphate group from an ATP if the kinase is not inhibited by an inhibitor peptide. The positively charged substrate then is attracted to a negatively charged filter membrane, quantified with a scintillation counter, and compared to a 100% activity control.
(§3) In addition to determining the IC50 of the compound, the specificity of MK2 inhibitory peptides was assessed by examining activities of all 266 human kinases available for testing in the Millipore kinase profiling service (Table 1).

Test [2] concerns the target Ron(h) (Homo sapiens, UniProt Q04912). The method, then: as §1, §2, §3
The target of test [3] is EGFR(L861Q)(h) (Homo sapiens, UniProt P00533, L861Q). On the procedure:
as §1, §2, §3

The target of test [4] is T1, IKKβ(h) (Homo sapiens, UniProt O14920).
T1 construct: purchased Millipore
T1 sequence (O14920 1-756): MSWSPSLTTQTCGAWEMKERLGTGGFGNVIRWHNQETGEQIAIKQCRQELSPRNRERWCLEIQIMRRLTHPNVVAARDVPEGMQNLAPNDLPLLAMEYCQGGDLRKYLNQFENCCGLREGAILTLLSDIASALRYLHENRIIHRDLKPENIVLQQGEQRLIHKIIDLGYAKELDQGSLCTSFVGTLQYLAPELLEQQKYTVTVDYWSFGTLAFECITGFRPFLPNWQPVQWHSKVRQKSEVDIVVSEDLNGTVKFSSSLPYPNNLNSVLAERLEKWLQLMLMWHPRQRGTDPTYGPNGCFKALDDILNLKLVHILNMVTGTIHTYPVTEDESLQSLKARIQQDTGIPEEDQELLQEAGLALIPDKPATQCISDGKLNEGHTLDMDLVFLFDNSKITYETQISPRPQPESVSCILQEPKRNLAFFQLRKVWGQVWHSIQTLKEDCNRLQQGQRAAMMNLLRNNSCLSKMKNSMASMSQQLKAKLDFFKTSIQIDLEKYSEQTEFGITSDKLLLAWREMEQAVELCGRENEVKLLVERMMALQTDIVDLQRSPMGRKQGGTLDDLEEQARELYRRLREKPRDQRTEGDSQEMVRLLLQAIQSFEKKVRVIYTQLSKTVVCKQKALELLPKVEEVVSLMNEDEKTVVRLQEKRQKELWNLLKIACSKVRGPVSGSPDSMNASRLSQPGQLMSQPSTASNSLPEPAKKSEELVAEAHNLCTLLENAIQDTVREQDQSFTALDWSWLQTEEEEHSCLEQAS
The method, then: as §1, §2, §3

The target of test [5] is T2, JNK3(h) (Homo sapiens, UniProt P53779).
T2 construct: purchased Millipore
T2 sequence (P53779 whole entry): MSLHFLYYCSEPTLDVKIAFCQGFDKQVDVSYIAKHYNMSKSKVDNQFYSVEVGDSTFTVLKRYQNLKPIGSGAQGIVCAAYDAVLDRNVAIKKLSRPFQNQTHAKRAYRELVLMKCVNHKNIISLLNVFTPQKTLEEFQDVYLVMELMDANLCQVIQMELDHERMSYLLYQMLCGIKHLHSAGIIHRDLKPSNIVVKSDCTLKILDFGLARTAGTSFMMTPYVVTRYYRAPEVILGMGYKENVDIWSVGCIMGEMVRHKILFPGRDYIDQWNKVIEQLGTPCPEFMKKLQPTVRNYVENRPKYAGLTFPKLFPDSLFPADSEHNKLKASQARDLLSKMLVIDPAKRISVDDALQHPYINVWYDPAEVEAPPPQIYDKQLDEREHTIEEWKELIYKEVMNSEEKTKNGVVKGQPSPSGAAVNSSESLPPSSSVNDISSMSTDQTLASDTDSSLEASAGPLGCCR
On the procedure:
as §1, §2, §3

Test [6] concerns the target T3, MEK1(h) (Homo sapiens, UniProt Q02750).
T3 construct: purchased Millipore
On the procedure:
as §1, §2, §3

The target of test [7] is T4, PAK4(h) (Homo sapiens, UniProt O96013).
T4 construct: purchased Millipore
T4 sequence (O96013 whole entry): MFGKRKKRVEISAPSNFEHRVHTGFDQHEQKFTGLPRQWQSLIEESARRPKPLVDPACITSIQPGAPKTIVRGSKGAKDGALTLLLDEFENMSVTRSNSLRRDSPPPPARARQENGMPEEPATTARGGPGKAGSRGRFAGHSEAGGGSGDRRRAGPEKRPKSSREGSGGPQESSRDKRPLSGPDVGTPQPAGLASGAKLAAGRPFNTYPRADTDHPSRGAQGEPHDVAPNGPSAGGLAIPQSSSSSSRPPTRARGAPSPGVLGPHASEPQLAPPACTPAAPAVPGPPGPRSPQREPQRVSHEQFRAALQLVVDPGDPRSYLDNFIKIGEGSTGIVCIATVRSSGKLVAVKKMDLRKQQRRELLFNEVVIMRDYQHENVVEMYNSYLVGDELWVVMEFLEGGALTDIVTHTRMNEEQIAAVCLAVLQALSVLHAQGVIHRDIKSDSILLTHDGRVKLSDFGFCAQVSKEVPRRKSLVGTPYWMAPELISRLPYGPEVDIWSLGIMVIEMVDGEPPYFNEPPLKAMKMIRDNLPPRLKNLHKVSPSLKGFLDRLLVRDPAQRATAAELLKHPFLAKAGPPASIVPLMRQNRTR
The method, then:
as §1, §2, §3

Test [8] has as its target T5, EphA1(h) (Homo sapiens, UniProt P21709).
T5 sequence (P21709 26-976): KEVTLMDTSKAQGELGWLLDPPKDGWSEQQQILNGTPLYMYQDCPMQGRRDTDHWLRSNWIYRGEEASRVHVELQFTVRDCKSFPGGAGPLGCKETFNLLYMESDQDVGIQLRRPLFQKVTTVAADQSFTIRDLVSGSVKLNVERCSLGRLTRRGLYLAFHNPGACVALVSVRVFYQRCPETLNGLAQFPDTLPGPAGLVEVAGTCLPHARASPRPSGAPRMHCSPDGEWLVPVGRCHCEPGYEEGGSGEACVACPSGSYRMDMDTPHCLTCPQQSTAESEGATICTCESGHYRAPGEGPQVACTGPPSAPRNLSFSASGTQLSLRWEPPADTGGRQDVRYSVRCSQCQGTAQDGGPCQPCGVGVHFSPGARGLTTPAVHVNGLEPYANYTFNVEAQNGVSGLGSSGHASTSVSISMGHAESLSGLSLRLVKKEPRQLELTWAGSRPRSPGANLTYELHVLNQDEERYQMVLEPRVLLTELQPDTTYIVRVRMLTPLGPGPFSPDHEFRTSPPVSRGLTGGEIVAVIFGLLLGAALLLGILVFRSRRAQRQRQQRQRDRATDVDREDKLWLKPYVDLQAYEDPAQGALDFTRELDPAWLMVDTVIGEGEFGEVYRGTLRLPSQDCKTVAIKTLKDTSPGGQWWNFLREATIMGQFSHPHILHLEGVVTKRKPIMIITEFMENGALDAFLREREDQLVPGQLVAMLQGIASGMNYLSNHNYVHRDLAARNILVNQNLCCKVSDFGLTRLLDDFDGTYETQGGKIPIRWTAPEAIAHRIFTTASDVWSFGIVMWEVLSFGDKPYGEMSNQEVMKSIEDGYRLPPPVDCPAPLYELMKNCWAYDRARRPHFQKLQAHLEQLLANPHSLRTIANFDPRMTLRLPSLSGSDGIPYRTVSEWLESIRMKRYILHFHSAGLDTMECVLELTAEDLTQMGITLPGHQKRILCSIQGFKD
On the procedure:
as §1, §2, §3

Test [9] has as its target TrkB(h) (Homo sapiens, UniProt Q16620). On the procedure:
as §1, §2, §3

In test [10] the target is PAK5(h) (Homo sapiens, UniProt Q9P286). The method, then: as §1, §2, §3
Chain of PAK5(h) (Q9P286 whole entry): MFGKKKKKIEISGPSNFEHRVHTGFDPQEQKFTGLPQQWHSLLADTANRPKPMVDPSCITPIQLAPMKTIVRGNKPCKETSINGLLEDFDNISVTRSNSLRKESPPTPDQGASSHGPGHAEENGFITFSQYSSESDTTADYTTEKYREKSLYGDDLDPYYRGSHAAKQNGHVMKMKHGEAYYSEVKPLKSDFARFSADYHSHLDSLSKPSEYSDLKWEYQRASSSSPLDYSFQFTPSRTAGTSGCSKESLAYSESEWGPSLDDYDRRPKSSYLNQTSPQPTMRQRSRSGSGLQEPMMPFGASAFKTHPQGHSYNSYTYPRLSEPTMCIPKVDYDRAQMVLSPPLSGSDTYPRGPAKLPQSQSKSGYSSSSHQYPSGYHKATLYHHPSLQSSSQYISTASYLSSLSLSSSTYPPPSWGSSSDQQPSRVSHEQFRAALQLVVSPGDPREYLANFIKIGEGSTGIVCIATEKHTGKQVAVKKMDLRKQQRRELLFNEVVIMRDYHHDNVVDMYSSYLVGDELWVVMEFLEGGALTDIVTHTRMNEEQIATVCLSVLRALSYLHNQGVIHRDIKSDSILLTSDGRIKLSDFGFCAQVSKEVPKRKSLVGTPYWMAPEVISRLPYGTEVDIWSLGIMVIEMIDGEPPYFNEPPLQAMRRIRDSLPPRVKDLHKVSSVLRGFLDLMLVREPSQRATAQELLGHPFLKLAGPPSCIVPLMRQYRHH
Test [11] concerns the target T6, MAPK2(h) (Homo sapiens, UniProt P28482).
T6 construct: purchased Millipore
On the procedure: as §1, §2, §3

No end group written: not given here.

Chain of CDK5/p25(h) (Q00535 whole entry): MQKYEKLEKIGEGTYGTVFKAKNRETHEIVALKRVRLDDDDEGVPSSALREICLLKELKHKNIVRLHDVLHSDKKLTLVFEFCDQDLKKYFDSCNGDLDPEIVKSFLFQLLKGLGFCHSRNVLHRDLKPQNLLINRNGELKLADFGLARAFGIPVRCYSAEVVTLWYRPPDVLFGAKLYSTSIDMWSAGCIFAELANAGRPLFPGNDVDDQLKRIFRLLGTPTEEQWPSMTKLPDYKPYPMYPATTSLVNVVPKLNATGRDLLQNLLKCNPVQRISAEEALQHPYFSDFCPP
Chain of CDK5/p25(h) (Q15078 99-307 partner limits assumed): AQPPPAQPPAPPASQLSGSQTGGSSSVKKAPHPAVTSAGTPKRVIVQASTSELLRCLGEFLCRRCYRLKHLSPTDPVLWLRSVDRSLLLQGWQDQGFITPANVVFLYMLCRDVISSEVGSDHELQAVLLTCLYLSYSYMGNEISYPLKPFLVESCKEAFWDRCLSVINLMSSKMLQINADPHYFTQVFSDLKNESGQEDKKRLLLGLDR
T6 sequence (P28482 whole entry): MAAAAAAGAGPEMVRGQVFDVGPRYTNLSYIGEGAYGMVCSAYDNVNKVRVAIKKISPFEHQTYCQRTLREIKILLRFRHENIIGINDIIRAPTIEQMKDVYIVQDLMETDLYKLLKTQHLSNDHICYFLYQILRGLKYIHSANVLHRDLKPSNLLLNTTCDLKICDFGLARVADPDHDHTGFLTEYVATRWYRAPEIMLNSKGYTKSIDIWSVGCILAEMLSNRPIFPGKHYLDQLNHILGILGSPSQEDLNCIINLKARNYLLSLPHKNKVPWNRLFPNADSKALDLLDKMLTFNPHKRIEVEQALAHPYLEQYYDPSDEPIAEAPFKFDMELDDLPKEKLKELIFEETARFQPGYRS

Turning to FAKLAARLYRKALARQLGVAA [MMI-0300], the “% activity” value in test [1] is listed as 89%; in [2], 93%; in test [3], 25%; in [4], 84%; in test [5] it was 89%; in [6], 77%. Moreover, the “% activity” value in test [7] is recorded as 94%; in [8], 73%; in test [9], 5%; in test [10], 110%; in test [11], 98%.

With “HRRIKAWLKKIKALARQLGVAA (Mammal) [MMI-0500]”, the “% activity” value in test [1] came out at 66%; in test [2] it was 46%; in [3], 15%; in [4] it was 71%; in test [5], 171%; in test [6], 21%. In addition, the “% activity” value is given as 86% in test [7]; 40% in test [8]; 12% in [9]; 125% in [10]; 60% in [11].

As to KAFAKLAARLYRKALARQLGVAA [MMI-0400], the “% activity” value in test [1] was found to be 92%; in test [2] it was 79%; in test [3], 22%; in test [4] it was 84%; in test [5], 70%; in test [6], 77%. The “% activity” value in test [7] is on record as 89%; in test [8] it was 61%; in [9], 8%; in [11] it was 93%.

Regarding YARAAARQARAKALARQLGVAA [MMI-0100], the “% activity” value is listed as 53% in test [3], 92% in [7] and 4% in test [9].

With “YARAAARQARAKALNRQLGVA (Mammal) [MMI-0200]”, the “% activity” value in [1] amounted to 97%; in test [2], 120%; in [3], 74%; in test [5], 90%; in [7], 98%; in test [9], 7%. For the same sequence, the “% activity” value in [10] amounted to 100%.
